What was measured:
[1] = test system: T1, TevENO (T. evansi enolase); assay: PYK/LDH coupled assay, NADH absorbance at […] nm, Michaelis-Menten fit; type: biochemical, Trypanosoma evansi; conditions: 0.1 M triethanolamine/HCl, pH 7.6, 25 °C, 2 mM MgSO4, 17 mM KCl, 1.1 mM ADP, 0.42 mM NADH; 2-PGA 0 to 1 mM
T1 construct: gene ENO; recombinant, codon-optimised gene in pET21b, E. coli BL21(DE3); N-terminal His6 tag and TEV cleavage site, tag cleavage not described

[2] = target: recombinant Trypanosoma evansi enolase (TevENO), His-tagged (Trypanosoma evansi); assay: SEC; analytical SEC, ENrich SEC 650 10 x 300 column, buffer A (50 mM sodium phosphate, 5 mM MgCl2, pH 7.0); 500 μg TevENO, 168.9 μg Nb11, or mixtures at TevENO:Nb11 monomer ratios 2:1, 2:2, 2:3, 2:4 incubated 1 h; peaks analysed by SDS-PAGE
[3] = target: T2, recombinant Trypanosoma evansi enolase (TevENO), His-tagged (Trypanosoma evansi); assay: ELISA; heterologous sandwich ELISA: His-tagged Nb11 coated at 1 μg/mL, TevENO 1 μg/mL in PBS, HA-tagged detection Nb at 1 μg/mL; conditions: both partners purified
T2 construct: monomer MM = 48.41 kDa as printed; also called T. evansi enolase; recombinant TevENO; source: E. coli BL21 (DE3), purified (IMAC, SEC)
T2 chain: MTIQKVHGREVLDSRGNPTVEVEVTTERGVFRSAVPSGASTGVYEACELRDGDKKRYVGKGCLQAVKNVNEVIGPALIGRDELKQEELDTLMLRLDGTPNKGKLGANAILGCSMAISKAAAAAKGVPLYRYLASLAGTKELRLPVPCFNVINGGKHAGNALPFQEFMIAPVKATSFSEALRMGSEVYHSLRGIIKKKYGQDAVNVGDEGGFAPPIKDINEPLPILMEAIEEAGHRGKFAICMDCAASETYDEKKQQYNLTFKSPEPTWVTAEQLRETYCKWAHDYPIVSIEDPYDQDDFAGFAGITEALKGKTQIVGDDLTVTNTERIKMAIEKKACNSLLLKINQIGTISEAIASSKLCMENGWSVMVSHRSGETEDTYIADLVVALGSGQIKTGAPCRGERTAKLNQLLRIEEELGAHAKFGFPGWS

`O=C(O)[C@@H](CO)OP(=O)(O)O` [2-PGA, 2-phosphoglycerate] was tested, and the Km [1] was 52 µM.

Molecule “recombinant Trypanosoma evansi enolase (TevENO), His-tagged (enzyme)” has a stoichiometry N [2] of 2.

B1: NbR1-10 (VHH)
VHH: QVQLQESGGGLVQPGGSLRLSCAAPGSIFSIFSGNIMGWYRQAPGKQRDFVASISSGGATNYADSVKGRFTISRDNAKNTVYLQMNNLKPEDTAVYYCNTVGGVHTNSWGQGTQVTVSS
notes: alpaca Nanobody; source: E. coli WK6, periplasmic extract, purified (His-Select Nickel resin, SEC)
B1: binds [3].
